Target: the molecule itself
Test: X-ray crystallography, homodimer in the asymmetric unit

B1: isopentenyl phosphate kinase (IPK) from Methanocaldococcus jannaschii (enzyme)
chain: MLTILKLGGSILSDKNVPYSIKWDNLERIAMEIKNALDYYKNQNKEIKLILVHGGGAFGHPVAKKYLKIEDGKKIFINMEKGFWEIQRAMRRFNNIIIDTLQSYDIPAVSIQPSSFVVFGDKLIFDTSAIKEMLKRNLVPVIHGDIVIDDKNGYRIISGDDIVPYLANELKADLILYATDVDGVLIDNKPIKRIDKNNIYKILNYLSGSNSIDVTGGMKYKIEMIRKNKCRGFVFNGNKANNIYKALLGEVEGTEIDFSE
notes: The crystal holds a homodimer, two molecules in the asymmetric unit; also called IPK-Mjannaschii; IPK-Mj
B1: binds.
